{"source": "paper PMC9457330", "about": "(Proceedings of the National Academy of Sciences of the …, 2022)", "target": "the molecule itself", "test": "native gel or EMSA"}
{"protein": "SLC25A11 (endogenous, mouse) (natural protein, UniProt Q9CR62 1-314, looked up) MAATASPGAGRMDGKPRTSPKSVKFLFGGLAGMGATVFVQPLDLVKNRMQLSGEGAKTREYKTSFHALTSILKTEGLKGIYTGLSAGLLRQATYTTTRLGIYTVLFERLTGADGTPPGFLLKALIGMTAGATGAFVGTPAEVALIRMTADGRLPADQRRGYKNVFNALVRIAREEGVPTLWRGCIPTMARAVVVNAAQLASYSQSKQFLLDSGYFSDNILCHFCASMISGLVTTAASMPVDIVKTRIQNMRMIDGKPEYKNGLDVLLKVVRYEGFFSLWKGFTPYYARLGPHTVLTFIFLEQMNKAYKRLFLSG", "values": [{"measurement": "stoichiometry N", "value": 2}]}
